Data on one substance can be found in paper PMC7078487.

In the assay the target is soluble FixL (FixL_(118–495), missing the transmembrane domain) (Caulobacter crescentus).

On to “Caulobacter crescentus FixT (natural protein)”, for which the accumulation of autophosphorylated FixL ([γ-32P]ATP, 30-minute time course; FixL 5 μM, FixJ(D55A) 20 μM, FixT 80 μM) was determined as 3 fold.
